This note sets out measurements from paper doi:10.1101/2021.08.25.457676, “Binding of AP endonuclease-1 to G-quadruplex DNA depends on the N-terminal domain, Mg2+ and ionic strength”.

Data set [1] concerns the target T1, D210A-APE1 (Homo sapiens, UniProt P27695 1-318, D210A). The data set is described as follows: fluorescence anisotropy; 140 mM K+; 20 mM Tris pH 7.4, 50 mM KOAc (or 140 mM K+ / 50 mM Li+), 0, 1 or 10 mM Mg(OAc)2, 1 mM DTT, 22 °C, 100 nM FAM-DNA, APE1 0-5000 nM. To be noted: protein: recombinant; tags: His (pET28HIS-hAPE1); label: 5' FAM; intramolecular parallel G4 in K+; unfolded in Li+.

The target in data set [2] is APE1 (WT) (Homo sapiens, UniProt P27695 1-318). The data set is described as follows: fluorescence anisotropy; 0 Mg2+, EDTA, 50 mM K+; 20 mM Tris pH 7.4, 50 mM KOAc (or 140 mM K+ / 50 mM Li+), 0, 1 or 10 mM Mg(OAc)2, 1 mM DTT, 22 °C, 100 nM FAM-DNA, APE1 0-5000 nM. The note with it: protein: recombinant; tags: His (pET28HIS-hAPE1, Addgene 70757); label: 5' FAM; intramolecular parallel G4 in K+; unfolded in Li+.
Chain of APE1 (WT) (P27695 whole entry): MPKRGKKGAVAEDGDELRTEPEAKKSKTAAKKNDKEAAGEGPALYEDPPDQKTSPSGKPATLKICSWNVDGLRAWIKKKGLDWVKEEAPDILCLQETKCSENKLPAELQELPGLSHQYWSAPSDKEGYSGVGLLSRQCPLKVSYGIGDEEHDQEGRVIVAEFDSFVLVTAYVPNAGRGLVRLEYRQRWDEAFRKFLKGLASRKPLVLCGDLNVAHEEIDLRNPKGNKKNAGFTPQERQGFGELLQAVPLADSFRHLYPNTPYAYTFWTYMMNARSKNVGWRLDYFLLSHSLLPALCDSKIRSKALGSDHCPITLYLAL

Data set [3] addresses T1, D210A-APE1. The data set is described as follows: fluorescence anisotropy; 10 mM Mg2+, 50 mM K+; 20 mM Tris pH 7.4, 50 mM KOAc (or 140 mM K+ / 50 mM Li+), 0, 1 or 10 mM Mg(OAc)2, 1 mM DTT, 22 °C, 100 nM FAM-DNA, APE1 0-5000 nM. The note with it: protein: recombinant; tags: His (pET28HIS-hAPE1); label: 5' FAM; intramolecular parallel G4 in K+; unfolded in Li+.
For data set [4], the target named is Δ33-D210A-APE1 (Homo sapiens, UniProt P27695 34-318, D210A;del1-33). The data set is described as above. To be noted: protein: recombinant; tags: His (pET28HIS-hAPE1); label: 5' FAM; intramolecular parallel G4 in K+; unfolded in Li+.
Chain of Δ33-D210A-APE1 (P27695 34-318 D210A): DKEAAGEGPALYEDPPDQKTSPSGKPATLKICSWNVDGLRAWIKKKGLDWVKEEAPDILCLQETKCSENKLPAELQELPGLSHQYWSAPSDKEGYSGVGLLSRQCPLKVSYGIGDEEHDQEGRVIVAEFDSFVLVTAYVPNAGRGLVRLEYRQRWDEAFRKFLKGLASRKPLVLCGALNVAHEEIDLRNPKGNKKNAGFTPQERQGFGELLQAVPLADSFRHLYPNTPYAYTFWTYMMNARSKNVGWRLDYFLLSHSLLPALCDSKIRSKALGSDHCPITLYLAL

T1 sequence (P27695 whole entry D210A): as the sequence (P27695 whole entry) above, with D210A counted along it

B1: VEGF-4 (structured_DNA)
DNA: CGGGGCGGGCCGGGGGCGGGGT
Consider B1, for which the Kd was found to be 20 nM in data set [1], 190 ± 50 nM in data set [2], 55 ± 4 nM in data set [3] and 230 ± 40 nM in data set [4].
